Test results as given in patent publication US9266930.

What was measured:
HLA-A*1101 (human) = settings: for binding affinity ratio (relative to standard peptide): scale: ratio

| Binder | binding affinity ratio (IC50 of standard peptide / IC50 of test peptide) (HLA-A*0201 (Human)) | further results |
| --- | --- | --- |
| QDSLKESRK (modifications not checked) [… (Pf SSP2 169)] | – | binding affinity ratio (IC50 of standard peptide / IC50 of test peptide) (HLA-A*1101 (human)): 0.0002 |
| PSPNPEEGK (modifications not checked) [… (Pf SSP2 328)] | – | binding affinity ratio (IC50 of standard peptide / IC50 of test peptide) (HLA-A*1101 (human)): 0.0002 |
| HDLISDMIKK (modifications not checked) | – | binding affinity ratio (relative to standard peptide) (HLA-A*1101 (human)): 0.0002 |
| LIFFDLFLV (modifications not checked) [… (Pf SSP2 15, 9-mer A02 supermotif peptide)] | 0.089 | – |
| GVSSKKKNKK (modifications not checked) | – | binding affinity ratio (relative to standard peptide) (HLA-A*1101 (human)): 0.0002 |
| QSQDNNGNR (modifications not checked) [… (Pf SSP2 436)] | – | binding affinity ratio (IC50 of standard peptide / IC50 of test peptide) (HLA-A*1101 (human)): 0.0002 |
| IVFLIFFDL (modifications not checked) [… (Pf SSP2 12, 9-mer A02 supermotif peptide)] | 0.0024 | – |
| VLLGGVGLV (modifications not checked) [… (P. falciparum EXP-1, position 91, 9 amino acids)] | 0.029 | – |
| QGINVAFNR (modifications not checked) [… (Pf SSP2 192)] | – | binding affinity ratio (IC50 of standard peptide / IC50 of test peptide) (HLA-A*1101 (human)): 0.078 |
| VIGPFMKAV (modifications not checked) [SSP2 226 …] | 0.0004 | – |
| LLMDCSGSI (modifications not checked) [… (Pf SSP2 51, 9-mer A02 supermotif peptide)] | 0.046 | – |
| HLGNVKYLV (modifications not checked) [… (Pf SSP2 3, 9-mer)] | 0.0017 | – |
| KGTGSGVSSK (modifications not checked) [Pf EXP peptide … (position 27)] | – | binding affinity ratio (relative to standard peptide) (HLA-A*1101 (human)): 0.0009 |
| GIAGGLALL (modifications not checked) [… (Pf SSP2 503, 9-mer)] | 0.0022 | – |
| GVSSKKKNK (modifications not checked) | – | binding affinity ratio (relative to standard peptide) (HLA-A*1101 (human)): 0.0002 |
| HDLISDMIK (modifications not checked) | – | binding affinity ratio (relative to standard peptide) (HLA-A*1101 (human)): 0.0002 |
| GLALLACAGL (modifications not checked) [… (Pf SSP2 507, 10-mer)] | 0.017 | – |
| VIVFLIFFDL (modifications not checked) [SSP2 11 …] | 0.0038 | – |
| SVFFLALFFI (modifications not checked) [… (P. falciparum EXP-1, position 5, 10 amino acids)] | 0.0017 | – |
| QCEEERCPPK (modifications not checked) [… (Pf SSP2 280)] | – | binding affinity ratio (IC50 of standard peptide / IC50 of test peptide) (HLA-A*1101 (human)): 0.0002 |
| PDSIQDSLK (modifications not checked) [… (Pf SSP2 165)] | – | binding affinity ratio (IC50 of standard peptide / IC50 of test peptide) (HLA-A*1101 (human)): 0.0002 |
| LLGGVGLVL (modifications not checked) [… (EXP position 92, 9 amino acids)] | 0.0038 | – |
| SAWENVKNV (modifications not checked) [SSP2 218 …] | 0.0019 | – |
| YLLMDCSGSI (modifications not checked) [SSP2 50 …] | 0.17 | – |
| IFNKESLAEK (modifications not checked) [Pf EXP peptide … (position 15)] | – | binding affinity ratio (relative to standard peptide) (HLA-A*1101 (human)): 0.0003 |
| NSEDRETRPH (modifications not checked) [… (Pf SSP2 448)] | – | binding affinity ratio (IC50 of standard peptide / IC50 of test peptide) (HLA-A*1101 (human)): 0.0002 |
